We go through 2 molecules from patent US20140296491A1 (MILTENYI BIOTECH, published 2014).

Assay [1] has as its target T1, human CD8 on CD8+ cells of human PBMCs (human, UniProt P01732 22-235).
T1 construct: whole, on cells; Immunization and panning used recombinant hCD8a (Ser 22-Asp 182, His tag); The flow cytometry used native CD8 on PBMCs; also called hCD8; hCD8a
The experiment in a line: phage display selection on hCD8a with EDTA elution, then clone screening. As for the experimental part:
Flow cytometry results of screened clones of library 2a from EDTA eluates after panning cycle IIb with triple depletion of Ca2+ independent hCD8a binders. After exclusion of dead cells and cell debris CD8+ cells were identified as a CD3+/CD4− cell population. hCD8-specific Fabs were detected by anti-polyhistidine-PE (anti-HIS-PE). Mean fluorescence intensities (MFI) of anti-HIS-PE staining were plotted to evaluate the influence of 10 mM EDTA. 75_A1 (uninoculated medium) and 75_C1 (anti-MUC1 scFv expressing clone) were negative controls, while 75_B1 (CD8 BW135/80) served as positive control. FIG. 7: MFI before and after addition of EDTA. FIG. 8: MFI ratio (−)EDTA/(+)EDTA. FIG. 9: Dot plots of clone KRR75_G1 before and after the addition of 10 mM EDTA.
Variations in panning process were tested to direct the selection towards Ca2+ dependent binding. […]
Clones generated by different selection procedures and stages were characterized upon hCD8 specificity and potential Ca2+ dependent binding. […] Supernatants of these cultures were analyzed for the presence hCD8 specific Fabs using a flow cytometric staining assay in the Ca2+ containing buffer HBSS (Hank's balanced salt solution) +0.5% BSA. […] Bound Fabs were detected via the polyhistidine tag of the Fab and an anti-polyhistidine tag-fluorochrome conjugate. […]

In assay [2] the target is T1, human CD8 on CD8+ cells of human PBMCs. In words: flow cytometry on human CD8+ cells, before and after EDTA. As for the experimental part:
FIGS. 10, 11, and 12 show flow cytometry results of screened clones after panning cycle IIIb. Flow cytometry results of screened clones (see 4.4.2.2) of library 1a and 2a from EDTA eluates after panning cycle IIIb. After exclusion of dead cells and cell debris CD8+ cells were identified as a CD3+/CD4− cell population. hCD8 specific Fabs were detected by anti-His-PE. Mean fluorescence intensities (MFI) of anti-His-PE staining were plotted to evaluate the influence of 10 mM EDTA on staining with certain Fab clones. 77_A1 (uninoculated medium) and 77_C1 (anti-MUC1 scFv expressing clone) were negative controls, while 77_B1 (CD8 BW135/80) served as positive control for hCD8 staining. FIG. 10: MFI before and after addition of EDTA. FIG. 11: MFI ratio (−)EDTA/(+)EDTA. FIG. 12: Dot plot of clone KRR77_D1 before and after the addition of 10 mM EDTA.
Clones generated by different selection procedures and stages were characterized upon hCD8 specificity and potential Ca2+ dependent binding. Therefore, Fab expressions of single clones were performed in a microtiter plate format (150 μL). Supernatants of these cultures were analyzed for the presence hCD8 specific Fabs using a flow cytometric staining assay in the Ca2+ containing buffer HBSS (Hank's balanced salt solution) +0.5% BSA. […] Bound Fabs were detected via the polyhistidine tag of the Fab and an anti-polyhistidine tag-fluorochrome conjugate. […]
(In flow cytometry, cells or beads pass a laser one at a time.)

T1 sequence (P01732 22-235): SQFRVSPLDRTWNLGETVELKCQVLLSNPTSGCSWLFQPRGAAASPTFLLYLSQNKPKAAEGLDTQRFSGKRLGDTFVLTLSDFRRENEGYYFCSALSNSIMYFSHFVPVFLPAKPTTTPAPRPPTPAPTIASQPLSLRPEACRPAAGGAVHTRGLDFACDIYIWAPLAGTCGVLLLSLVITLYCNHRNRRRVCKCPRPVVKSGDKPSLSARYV

B1: chimeric recombinant Fab CD8 KRR75_G1 (Fab, V domains shown)
VH: EVQLQQSGPELVKPGASVKMSCKASGYTFTDYVISWMKQRTGQGLEWIGEIYPGSGSDYYNEKFKGKATLTADKSSNTAYMQLSSLTSEDSAVYFCARWGITDYFDVWGAGTTVTVSS
VL: ETTVTQSPASLSMAIGEKVTIRCITSTDIDDDMNWYQQKPGEPPKLLISEGNTLRPGVPSRFSSSGYGTDFVFTIENMLSEDVADYYCLQSDNLPFTFGSGTKLEIK
notes: also called clone KRR75_G1
For the molecule B1, in assay [1], the binding result is recorded as “binds”.

B2: chimeric recombinant Fab CD8 KRR77_D1 (Fab, V domains shown)
VH: QVQLKESGPGLVQPSQSLSITCTVSGFSLTSYGVHWVRQSPGKGLEWLGVIWRGGSTDYNAAFMSRLSITKDNSKSQVFFKMNSLQADDTAIYYCAKNSITPFAYWGQGTLVTVSA
VL: B1 VL
notes: also called clone KRR77_D1
B2: in assay [2], the binding result is recorded as “binds”.
